Reference: IntAct's records for PubMed 16377563

Assays:
h2ax_human H2AX [1] = molecular target: h2ax_human H2AX (UniProt P16104)
h2ax_human H2AX [2] = molecular target: h2ax_human H2AX (UniProt P16104); remark: listed apart in the source
h2ax_human H2AX [3] = molecular target: h2ax_human H2AX (UniProt P16104); remark: listed apart in the source

| Substance | effect of a mutation on the interaction (h2ax_human H2AX [1]) | effect of a mutation on the interaction (h2ax_human H2AX [2]) | effect of a mutation on the interaction (h2ax_human H2AX [3]) |
| --- | --- | --- | --- |
| Mediator of DNA damage checkpoint protein 1 (Homo sapiens), Q14676 K1936M | decreasing interaction | disrupting interaction | – |
| Mediator of DNA damage checkpoint protein 1 (Homo sapiens), Q14676 R1933Q | – | – | disrupting interaction |
| Mediator of DNA damage checkpoint protein 1 (Homo sapiens), Q14676 T1898V | – | – | decreasing interaction |
